Assay results as given in patent US20030180306A1 (Pfizer, published 2003).

Biological target: T1, recombinant purified GDF-8 (UniProt O14793 267-375, limits assumed)
T1 sequence (looked up): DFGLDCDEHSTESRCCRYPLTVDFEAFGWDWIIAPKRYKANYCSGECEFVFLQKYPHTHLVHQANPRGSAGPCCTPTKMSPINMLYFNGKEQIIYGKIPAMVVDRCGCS
Assay: cell-based or functional assay

B1: mouse GASP1 cloned with a C-terminal V5-His tag (GASP1-V5-His) (other, not shown: small tags and cut ends)
chain: LPPIRYSHAGICPNDMNPNLWVDAQSTCKRECETDQECETYEKCCPNVCGTKSCVAARYMDVKGKKGPVGMPKEATCDHFMCLQQGSECDIWDGQPVCKCKDRCEKEPSFTCASDGLTYYNRCFMDAEACSKGITLSVVTCRYHFTWPNTSPPPPETTVHPTTASPETLGLDMAAPALLNHPVHQSVTVGETVSFLCDVVGRPRPELTWEKQLEDRENVVMRPNHVRGNVVVTNIAQLVIYNVQPQDAGIYTCTARNVAGVLRADFPLSVVRGGQARATSESSLNGTAFPATECLKPPDSEDCGEEQTRWHFDAQANNCLTFTFGHCHHNLNHFETYEACMLACMSGPLATCSLPALQGPCKAYVPRWAYNSQTGLCQSFVYGGCEGNGNNFESREACEESCPFPRGNQHCRACKPRQKLVTSFCRSDFVILGRVSELTEEQDSGRALVTVDEVLKDEKMGLKFLGREPLEVTLLHVDWTCPCPNVTVGETPLIIMGEVDGGMAMLRPDSFVGASSTRRVRKLREVMYKKTCDVLKDFLGLQ
B1 was tested, and the “IC50 for inhibition of GDF-8 (20 ng/ml) in the (CAGA)12 luciferase reporter gene assay, RD cells, purified GASP1-V5-His” value was roughly 3 nM.
